Tested on: O=C(O)CCC(=O)C(=O)O
Assay: purified protein
Conditions: NADH

GDH1 from bovine liver (glutamate dehydrogenase 1) (Bos taurus), sequence (chain, as listed by the source): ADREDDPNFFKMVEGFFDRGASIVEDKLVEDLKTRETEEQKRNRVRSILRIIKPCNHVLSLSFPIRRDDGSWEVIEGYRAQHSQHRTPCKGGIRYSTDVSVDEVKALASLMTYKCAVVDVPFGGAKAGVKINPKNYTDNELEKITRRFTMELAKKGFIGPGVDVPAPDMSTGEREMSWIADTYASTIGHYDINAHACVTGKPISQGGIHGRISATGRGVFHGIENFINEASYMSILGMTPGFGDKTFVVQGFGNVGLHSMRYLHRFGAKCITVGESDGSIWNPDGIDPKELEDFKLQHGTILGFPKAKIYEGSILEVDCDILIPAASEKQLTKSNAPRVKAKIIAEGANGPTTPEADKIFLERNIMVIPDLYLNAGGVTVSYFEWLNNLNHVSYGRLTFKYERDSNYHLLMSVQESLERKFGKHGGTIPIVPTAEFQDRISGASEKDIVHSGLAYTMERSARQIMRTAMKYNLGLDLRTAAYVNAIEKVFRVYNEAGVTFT

Substance: GDH1 from bovine liver (glutamate dehydrogenase 1) (Bos taurus)
- Km: 840 ± 20 µM

From publication PMC8615521, “Mitochondria-Mediated Apoptosis of HCC Cells Triggered by Knockdown of Glutamate Dehydrogenase 1: Perspective for Its Inhibition through Quercetin and Permethylated Anigopreissin A” (Biomedicines, 2021)
